# Measurements published in US20260265403A1 (TJ BIOPHARMA SHANGHAI, published 2026).
# T1: Human CD24 (human, UniProt P25063 27-59, limits assumed)
# T1 chain (looked up): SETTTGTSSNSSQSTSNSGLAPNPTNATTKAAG
# Legend:
# Human CD24 [1] = target: T1, Human CD24; assay: SPR affinity ranking, 1:1 binding, analyte conc. 19.71 nM
# Human CD24 [2] = target: T1, Human CD24; assay: SPR, second 1:1 binding column set
# Human CD24 [3] = target: T1, Human CD24; assay: affinity ranking; antibody as ligand, Human CD24 as analyte
Binder,Kd (Human CD24 [1]),koff (Human CD24 [1]),kon (Human CD24 [1]),Kd (Human CD24 [2]),koff (Human CD24 [2]),kon (Human CD24 [2]),Kd (Human CD24 [3]),koff (Human CD24 [3]),kon (Human CD24 [3])
"Antibody No 1, lead clone of 4451H (HC N35G; LC K27A, T97I) (antibody, V domains shown) VH: QVQLVQSGAEVKKPGASVKVSCKASGYDFTGYHMGWVRQAPGQGLEWMGEINPITSDKTFNQKFKSRVTMTRDTSISTAYMELSRLRSDDTAVYYCARRDYGTSLDYWGQGTTVTVSS VL: DIQLTQSPSFLSASVGDRVTITCRASASISKYLAWYQQKPGKAPKLLIYAGSTLHSGIPSRFRGSGSGTEFTLTISSLQPEDFATYYCQQHNEYPIIFGQGTKLEIK",10.5 nM,0.0132 s⁻¹,1.26e+06 M⁻¹ s⁻¹,,,,,,
"Antibody No 18, lead clone of 4451H (HC N35G, T59Y; LC T97I) (antibody, V domains shown) VH: QVQLVQSGAEVKKPGASVKVSCKASGYDFTGYHMGWVRQAPGQGLEWMGEINPITSDKYFNQKFKSRVTMTRDTSISTAYMELSRLRSDDTAVYYCARRDYGTSLDYWGQGTTVTVSS VL: DIQLTQSPSFLSASVGDRVTITCRASKSISKYLAWYQQKPGKAPKLLIYAGSTLHSGIPSRFRGSGSGTEFTLTISSLQPEDFATYYCQQHNEYPIIFGQGTKLEIK",8.83 nM,0.015 s⁻¹,1.7e+06 M⁻¹ s⁻¹,,,,,,
"Antibody No 4, lead clone of 4451H (HC N35G; LC K27A) (antibody, V domains shown) VH: QVQLVQSGAEVKKPGASVKVSCKASGYDFTGYHMGWVRQAPGQGLEWMGEINPITSDKTFNQKFKSRVTMTRDTSISTAYMELSRLRSDDTAVYYCARRDYGTSLDYWGQGTTVTVSS VL: DIQLTQSPSFLSASVGDRVTITCRASASISKYLAWYQQKPGKAPKLLIYAGSTLHSGIPSRFRGSGSGTEFTLTISSLQPEDFATYYCQQHNEYPITFGQGTKLEIK",8.97 nM,0.0107 s⁻¹,1.19e+06 M⁻¹ s⁻¹,,,,,,
"Antibody No 7, lead clone of 4451H (HC N35G; LC T97I) (antibody, V domains shown) VH: QVQLVQSGAEVKKPGASVKVSCKASGYDFTGYHMGWVRQAPGQGLEWMGEINPITSDKTFNQKFKSRVTMTRDTSISTAYMELSRLRSDDTAVYYCARRDYGTSLDYWGQGTTVTVSS VL: DIQLTQSPSFLSASVGDRVTITCRASKSISKYLAWYQQKPGKAPKLLIYAGSTLHSGIPSRFRGSGSGTEFTLTISSLQPEDFATYYCQQHNEYPIIFGQGTKLEIK",16.9 nM,0.0141 s⁻¹,836000 M⁻¹ s⁻¹,,,,,,
"Antibody No 9, lead clone of 4451H (HC T59Y; LC S30K, T97I) (antibody, V domains shown) VH: QVQLVQSGAEVKKPGASVKVSCKASGYDFTGYHMNWVRQAPGQGLEWMGEINPITSDKYFNQKFKSRVTMTRDTSISTAYMELSRLRSDDTAVYYCARRDYGTSLDYWGQGTTVTVSS VL: DIQLTQSPSFLSASVGDRVTITCRASKSIKKYLAWYQQKPGKAPKLLIYAGSTLHSGIPSRFRGSGSGTEFTLTISSLQPEDFATYYCQQHNEYPIIFGQGTKLEIK",11.4 nM,0.06 s⁻¹,5.27e+06 M⁻¹ s⁻¹,,,,,,
"Antibody No 2, lead clone of 4451H (HC N35G; LC S30K, T97I) (antibody, V domains shown) VH: QVQLVQSGAEVKKPGASVKVSCKASGYDFTGYHMGWVRQAPGQGLEWMGEINPITSDKTFNQKFKSRVTMTRDTSISTAYMELSRLRSDDTAVYYCARRDYGTSLDYWGQGTTVTVSS VL: DIQLTQSPSFLSASVGDRVTITCRASKSIKKYLAWYQQKPGKAPKLLIYAGSTLHSGIPSRFRGSGSGTEFTLTISSLQPEDFATYYCQQHNEYPIIFGQGTKLEIK",8.78 nM,0.0249 s⁻¹,2.83e+06 M⁻¹ s⁻¹,,,,,,
"Antibody No 13, lead clone of 4451H (HC T59Y; LC L33G) (antibody, V domains shown) VH: QVQLVQSGAEVKKPGASVKVSCKASGYDFTGYHMNWVRQAPGQGLEWMGEINPITSDKYFNQKFKSRVTMTRDTSISTAYMELSRLRSDDTAVYYCARRDYGTSLDYWGQGTTVTVSS VL: DIQLTQSPSFLSASVGDRVTITCRASKSISKYGAWYQQKPGKAPKLLIYAGSTLHSGIPSRFRGSGSGTEFTLTISSLQPEDFATYYCQQHNEYPITFGQGTKLEIK",9.68 nM,0.0237 s⁻¹,2.45e+06 M⁻¹ s⁻¹,,,,,,
"VH2 + VL4 (humanized 4451) (antibody, V domains shown, IgG expressed in HEK293) VH: QVQLVQSGAEVKKPGASVKVSCKASGYDFTGYHMNWVRQAPGQGLEWIGEINPITSDKTFNQKFKSRVTMTVDTSISTAYMELSRLRSDDTAVYYCARRDYGTSLDYWGQGTTVTVSS VL: DIQLTQSPSFLSASVGDRVTIYCRASKSISKYLAWYQQKPGKAPRLLIYAGSTLHSGIPSRFRGSGSGTEFTLTISSLQPEDFATYYCQQHNEYPITFGQGTKLEIK",,,,,,,19.7 nM,0.0229 s⁻¹,1.16e+06 M⁻¹ s⁻¹
"Antibody No 11, lead clone of 4451H (HC T59Y; LC K27A) (antibody, V domains shown) VH: QVQLVQSGAEVKKPGASVKVSCKASGYDFTGYHMNWVRQAPGQGLEWMGEINPITSDKYFNQKFKSRVTMTRDTSISTAYMELSRLRSDDTAVYYCARRDYGTSLDYWGQGTTVTVSS VL: DIQLTQSPSFLSASVGDRVTITCRASASISKYLAWYQQKPGKAPKLLIYAGSTLHSGIPSRFRGSGSGTEFTLTISSLQPEDFATYYCQQHNEYPITFGQGTKLEIK",14.1 nM,0.0171 s⁻¹,1.21e+06 M⁻¹ s⁻¹,,,,,,
"Antibody No 12, lead clone of 4451H (HC T59Y; LC S30K) (antibody, V domains shown) VH: QVQLVQSGAEVKKPGASVKVSCKASGYDFTGYHMNWVRQAPGQGLEWMGEINPITSDKYFNQKFKSRVTMTRDTSISTAYMELSRLRSDDTAVYYCARRDYGTSLDYWGQGTTVTVSS VL: DIQLTQSPSFLSASVGDRVTITCRASKSIKKYLAWYQQKPGKAPKLLIYAGSTLHSGIPSRFRGSGSGTEFTLTISSLQPEDFATYYCQQHNEYPITFGQGTKLEIK",11.1 nM,0.168 s⁻¹,1.52e+07 M⁻¹ s⁻¹,,,,,,
"Antibody No 8, lead clone of 4451H (HC T59Y; LC K27A, T97I) (antibody, V domains shown) VH: QVQLVQSGAEVKKPGASVKVSCKASGYDFTGYHMNWVRQAPGQGLEWMGEINPITSDKYFNQKFKSRVTMTRDTSISTAYMELSRLRSDDTAVYYCARRDYGTSLDYWGQGTTVTVSS VL: DIQLTQSPSFLSASVGDRVTITCRASASISKYLAWYQQKPGKAPKLLIYAGSTLHSGIPSRFRGSGSGTEFTLTISSLQPEDFATYYCQQHNEYPIIFGQGTKLEIK",15.8 nM,0.0196 s⁻¹,1.24e+06 M⁻¹ s⁻¹,,,,,,

# More lines, in order of falling Kd (Human CD24 [1]), values ahead:
Kd (Human CD24 [1]),koff (Human CD24 [1]),kon (Human CD24 [1]),Kd (Human CD24 [2]),koff (Human CD24 [2]),kon (Human CD24 [2]),Kd (Human CD24 [3]),koff (Human CD24 [3]),kon (Human CD24 [3]),Binder
8.7 nM,0.0175 s⁻¹,2.01e+06 M⁻¹ s⁻¹,,,,,,,"Antibody No 10, lead clone of 4451H (HC T59Y; LC L33G, T97I) (antibody, V domains shown) VH: QVQLVQSGAEVKKPGASVKVSCKASGYDFTGYHMNWVRQAPGQGLEWMGEINPITSDKYFNQKFKSRVTMTRDTSISTAYMELSRLRSDDTAVYYCARRDYGTSLDYWGQGTTVTVSS VL: DIQLTQSPSFLSASVGDRVTITCRASKSISKYGAWYQQKPGKAPKLLIYAGSTLHSGIPSRFRGSGSGTEFTLTISSLQPEDFATYYCQQHNEYPIIFGQGTKLEIK"
8.3 nM,0.0604 s⁻¹,7.28e+06 M⁻¹ s⁻¹,,,,,,,"Antibody No 14, lead clone of 4451H (HC T59Y; LC T97I) (antibody, V domains shown) VH: QVQLVQSGAEVKKPGASVKVSCKASGYDFTGYHMNWVRQAPGQGLEWMGEINPITSDKYFNQKFKSRVTMTRDTSISTAYMELSRLRSDDTAVYYCARRDYGTSLDYWGQGTTVTVSS VL: DIQLTQSPSFLSASVGDRVTITCRASKSISKYLAWYQQKPGKAPKLLIYAGSTLHSGIPSRFRGSGSGTEFTLTISSLQPEDFATYYCQQHNEYPIIFGQGTKLEIK"
7.89 nM,0.0345 s⁻¹,4.37e+06 M⁻¹ s⁻¹,,,,,,,"Antibody No 5, lead clone of 4451H (HC N35G; LC S30K) (antibody, V domains shown) VH: QVQLVQSGAEVKKPGASVKVSCKASGYDFTGYHMGWVRQAPGQGLEWMGEINPITSDKTFNQKFKSRVTMTRDTSISTAYMELSRLRSDDTAVYYCARRDYGTSLDYWGQGTTVTVSS VL: DIQLTQSPSFLSASVGDRVTITCRASKSIKKYLAWYQQKPGKAPKLLIYAGSTLHSGIPSRFRGSGSGTEFTLTISSLQPEDFATYYCQQHNEYPITFGQGTKLEIK"
7.51 nM,0.016 s⁻¹,2.13e+06 M⁻¹ s⁻¹,6.99 nM,0.00808 s⁻¹,1.16e+06 M⁻¹ s⁻¹,,,,"Antibody No 16, lead clone of 4451H (HC N35G, T59Y; LC S30K) (antibody, V domains shown) VH: QVQLVQSGAEVKKPGASVKVSCKASGYDFTGYHMGWVRQAPGQGLEWMGEINPITSDKYFNQKFKSRVTMTRDTSISTAYMELSRLRSDDTAVYYCARRDYGTSLDYWGQGTTVTVSS VL: DIQLTQSPSFLSASVGDRVTITCRASKSIKKYLAWYQQKPGKAPKLLIYAGSTLHSGIPSRFRGSGSGTEFTLTISSLQPEDFATYYCQQHNEYPITFGQGTKLEIK"
7.09 nM,0.00827 s⁻¹,1.17e+06 M⁻¹ s⁻¹,4.6 nM,0.00766 s⁻¹,1.66e+06 M⁻¹ s⁻¹,,,,"Antibody No 3, lead clone of 4451H (HC N35G; LC L33G, T97I) (antibody, V domains shown) VH: QVQLVQSGAEVKKPGASVKVSCKASGYDFTGYHMGWVRQAPGQGLEWMGEINPITSDKTFNQKFKSRVTMTRDTSISTAYMELSRLRSDDTAVYYCARRDYGTSLDYWGQGTTVTVSS VL: DIQLTQSPSFLSASVGDRVTITCRASKSISKYGAWYQQKPGKAPKLLIYAGSTLHSGIPSRFRGSGSGTEFTLTISSLQPEDFATYYCQQHNEYPIIFGQGTKLEIK"
7.05 nM,0.00755 s⁻¹,1.07e+06 M⁻¹ s⁻¹,3.98 nM,0.00509 s⁻¹,1.28e+06 M⁻¹ s⁻¹,,,,"Antibody No 15 (4451HM15), lead clone of 4451H (HC N35G, T59Y; LC K27A) (antibody, V domains shown) VH: QVQLVQSGAEVKKPGASVKVSCKASGYDFTGYHMGWVRQAPGQGLEWMGEINPITSDKYFNQKFKSRVTMTRDTSISTAYMELSRLRSDDTAVYYCARRDYGTSLDYWGQGTTVTVSS VL: DIQLTQSPSFLSASVGDRVTITCRASASISKYLAWYQQKPGKAPKLLIYAGSTLHSGIPSRFRGSGSGTEFTLTISSLQPEDFATYYCQQHNEYPITFGQGTKLEIK"
5.11 nM,0.00796 s⁻¹,1.56e+06 M⁻¹ s⁻¹,3.86 nM,0.00763 s⁻¹,1.98e+06 M⁻¹ s⁻¹,,,,"Antibody No 6, lead clone of 4451H (HC N35G; LC L33G) (antibody, V domains shown) VH: QVQLVQSGAEVKKPGASVKVSCKASGYDFTGYHMGWVRQAPGQGLEWMGEINPITSDKTFNQKFKSRVTMTRDTSISTAYMELSRLRSDDTAVYYCARRDYGTSLDYWGQGTTVTVSS VL: DIQLTQSPSFLSASVGDRVTITCRASKSISKYGAWYQQKPGKAPKLLIYAGSTLHSGIPSRFRGSGSGTEFTLTISSLQPEDFATYYCQQHNEYPITFGQGTKLEIK"
4.42 nM,0.0069 s⁻¹,1.56e+06 M⁻¹ s⁻¹,3.41 nM,0.00419 s⁻¹,1.23e+06 M⁻¹ s⁻¹,,,,"Antibody No 17, lead clone of 4451H (HC N35G, T59Y; LC L33G) (antibody, V domains shown) VH: QVQLVQSGAEVKKPGASVKVSCKASGYDFTGYHMGWVRQAPGQGLEWMGEINPITSDKYFNQKFKSRVTMTRDTSISTAYMELSRLRSDDTAVYYCARRDYGTSLDYWGQGTTVTVSS VL: DIQLTQSPSFLSASVGDRVTITCRASKSISKYGAWYQQKPGKAPKLLIYAGSTLHSGIPSRFRGSGSGTEFTLTISSLQPEDFATYYCQQHNEYPITFGQGTKLEIK"
